Patent US12366576B2, “Compositions, assays, and methods for direct modulation of fatty acid metabolism” (Dana-Farber Cancer Institute, Inc., priority 2016, dated 2025)
Bridge positions count the residues as written; N and C are the ends. Square brackets hold non-standard residues; d marks the D form. Ends that are not written are not given here. S5 = C=CCCC[C@](C)(N)C(=O)O

Columns and labels:
MCL-1ΔNΔC = molecular target: T1, MCL-1ΔNΔC (Homo sapiens, UniProt Q07820); assay: 19F NMR binding study with fluorinated SAHB; settings: fluorinated SAHB 25 μM, MCL-1ΔNΔC 0-45 μM
T1 construct: The MCL-1ΔNΔC construct was grown and expressed in E. coli as previously described; made in house; host or cells: E. coli BL21(DE3)
T1 sequence (Q07820 172-320 limits assumed, stated change not applied): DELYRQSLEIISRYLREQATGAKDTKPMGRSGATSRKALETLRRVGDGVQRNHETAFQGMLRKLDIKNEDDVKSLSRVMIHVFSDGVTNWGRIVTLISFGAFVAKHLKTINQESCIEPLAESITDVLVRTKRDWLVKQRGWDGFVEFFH
Method: To measure the direct binding interaction, ^19F NMR binding studies were conducted using fluorinated analogs of MCL-1 SAHBD. […] Both SAHBs, however, bind MCL-1ΔNΔC, as illustrated by a chemical shift of the peptide NMR peak in both cases (FIG. 15). […] To perform these experiments, N-terminal Btn-PEG analogs of the peptides were immobilized onto streptavidin probes that were then placed into protein solutions at a variety of concentrations to measure ligand-target association.
MCL-1ΔNΔC. The MCL-1ΔNΔC construct was grown and expressed in E. coli as previously described (see, e.g., Stewart, Nat Chem Biol., 6(6):595-601 (2010)). Transformed BL21(DE3) E. coli were grown at 37° C. to an OD of 0.8, after which they were induced with 0.5 mM IPTG. […]
To determine binding of SAHBs to VLCAD, fluorinated SAHB (25 μM) and VLCAD (0-125 μM) were mixed together in VLCAD FPLC buffer including 10% D2O to a final volume of 500 μL. […] The extent to which VLCAD bound the peptide was determined by measuring the peak width at half height (ν1/2) of the peptide ^19F signal. […] MCL-1ΔNΔC binding to SAHBs causes a change in the ^19F chemical shift of the peptide resulting in two peptide signals (instead of peak broadening), so extent of binding was quantified by measuring the peak height of “unbound” peptide relative to the bound peptide signal.

CreER^T2 MEFs = assay: MS-based acylcarnitine quantification in MEFs; type: cell-based, mouse; settings: 10 μM
Mcl-1^F/F CreER^T2 cells = settings: vehicle and tamoxifen exposed cells; except at the highest dose applied (100 μM)

Substance: MCL-1 SAHBD: hydrocarbon-stapled peptide mimicking the MCL-1 BH3 domain (Stabilized Alpha-Helix of BCL-2 Domain), SEQ ID NO:19 (RKALETLRRVGDGV[S5]RNH[S5]TAF; staple 15-19)
- 19F NMR binding to MCL-1ΔNΔC (chemical shift of the peptide peak) (MCL-1ΔNΔC): binds directly
- levels of very long-chain acylcarnitines relative to vehicle-treated control (CreER^T2 MEFs; Mcl-1^F/F CreER^T2 MEFs not exposed to tamoxifen, 48 hours): elevated levels
- effect on already elevated acylcarnitine levels (CreER^T2 MEFs; Mcl-1^F/F CreER^T2 MEFs subjected to tamoxifen (Mcl-1 deleted)): no effect
- cytotoxicity (cell viability) (Mcl-1^F/F CreER^T2 cells): Essentially no cytotoxicity
